The text below walks through data of patent US20070254831A1 (published 2007).

Like-named read-outs stand apart in the source and are kept apart here. Bridge positions count the residues as written; N and C are the ends. Square brackets hold non-standard residues; d marks the D form. Ends that are not written are not given here. NMeL = CN[C@@H](CC(C)C)C(=O)O; Pen = CC(C)(S)[C@H](N)C(=O)O; NMeA = CN[C@@H](C)C(=O)O; Ava = NCCCCC(=O)O; Sar = CNCC(=O)O A value given as a limit tells only on which side of the number the result lay.

For experiment [1], the target named is T1, soluble human FcRn (human, UniProt P55899 24-297; P61769 21-119, biotinylated (Sulfo-NHS-LC-Biotin) in the ELISA; amine-coupled to CM5 chip in SPR).
T1 construct: also called shFcRn; biotinylated shFcRn
T1 sequence (P55899 24-297 limits assumed, chain 1 of 2): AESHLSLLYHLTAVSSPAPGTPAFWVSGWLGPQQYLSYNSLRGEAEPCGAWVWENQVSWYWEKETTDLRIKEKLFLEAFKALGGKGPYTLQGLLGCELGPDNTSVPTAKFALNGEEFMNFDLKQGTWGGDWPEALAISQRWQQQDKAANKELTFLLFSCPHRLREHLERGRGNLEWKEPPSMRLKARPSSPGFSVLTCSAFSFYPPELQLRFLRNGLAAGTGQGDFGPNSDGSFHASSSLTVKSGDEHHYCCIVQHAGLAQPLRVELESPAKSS
T1 sequence (P61769 21-119 limits assumed, chain 2 of 2): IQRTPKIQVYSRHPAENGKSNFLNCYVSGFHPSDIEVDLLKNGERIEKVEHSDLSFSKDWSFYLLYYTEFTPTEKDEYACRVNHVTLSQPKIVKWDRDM
Kind of experiment: SPR, pH 7.4.
Method: (§1) The following steps were performed to cross-link soluble human or cynomolgus FcRn to the dextran surface of a CM5 sensor chip (Biacore AB, Uppsala, Sweden) by an amine coupling reaction involving 1-ethyl-(3-dimethylaminopropyl)-carbodiimide hydrochloride (EDC) (Biacore AB, Uppsala, Sweden) and N-hydroxysuccinimide (NHS) (Biacore AB, Uppsala, Sweden) as recommended by Biacore (BIAapplications Handbook, version AB, section 4.2, Biacore AB, Uppsala, Sweden). […] Residual sites on the FcRn flow cell were blocked with 1 M ethanolamine hydrochloride pH 8.5 (Biacore AB, Uppsala, Sweden). A control flow cell was blocked with ethanolamine for reference subtraction. For analysis of the monomeric peptides, FcRn was coated to a final density of 4000-5000 response units (RU). For analysis of the peptide dimers, FcRn was coated to a density of 2000-2500 RU. All SPR measurements were performed using a BIACORE 3000 Instrument (Biacore AB Uppsala, Sweden). For measurements done at either pH 6 or pH 7.4, experiments were performed in 50 mM phosphate, 100 mM sodium chloride, 0.01% surfactant P20 (Biacore AB, Uppsala, Sweden).
(§2) Ten, 2-fold dilutions of the peptide were injected over the FcRn-CM5 chip at a rate of 20 μl/min for 2 min. The peptide was dissociated from the chip for 2.5 minutes with buffer. […] Sensorgrams were generated and analyzed using BiaEval software version 3.1 (Biacore AB, Uppsala, Sweden). […]

For experiment [2], the target named is T1, soluble human FcRn. Kind of experiment: ELISA, competitor human IgG. (In general: In an ELISA, binding on a coated surface is turned into a signal by an enzyme label.)
Method: (§3) The wells were coated with 100 μl/well of 1 μg/ml biotinylated-shFcRn in Buffer A. The plate was sealed and incubated at 37° C. for 2 hours. Afterwards, the plate washed with 200 μl/well of Buffer B (Buffer B: 100 mM MES pH 6, 150 mM NaCl, 0.5% BSA IgG-free (Jackson ImmunoResearch, West Grove, Pa.), 0.05% Tween-20). […] To allow for mixing, the plate was rocked for 2 minutes, sealed and incubated at 37° C. for 2 hours. […] The plate was covered, incubated for 30 minutes at room temperature and washed 4 times with 200 μl/well of ice-cold buffer B. SureBlue TMB substrate solution (100 μl/well, KPL, Gaithersburg, Md.) was added and the plate was allowed to incubate at room temperature until color developed, which took 5 to 10 minutes. Once color developed, 100 μl/well of TMB stop solution (KPL, Gaithersburg, Md.) was added and the absorbance was measured at 450 nm. The data was plotted as absorbance vs. peptide concentration to derive the inhibitory concentration 50% (IC₅₀) values.
Experiment [3] deals with T1, soluble human FcRn. Put plainly: SPR, pH 6. In general terms: In SPR one partner is held on a chip, and binding of the other changes the refractive index at the surface.
Method: as §1, §2
In experiment [4] the target is T1, soluble human FcRn. Put plainly: SPR, pH 7.4. The source holds these as a separate data set.
Method: as §1, §2
Experiment [5] deals with T1, soluble human FcRn. Put plainly: ELISA, competitor human IgG. This is another data set of the same source.
Method: as §3
Experiment [6] deals with T1, soluble human FcRn. Kind of experiment: SPR, pH 6. The source holds these as a separate data set.
Method: as §1
(§4) Ten, 2-fold dilutions of the peptide were injected over the FcRn-CM5 chip at a rate of 20 μl/min for 2 min. The peptide was dissociated from the chip for 2.5 minutes with buffer. Any remaining peptide was removed from the chip with a 30 second injection of HBS-P buffer (Biacore AB, Uppsala, Sweden) at a rate of 30 μl/min. Sensorgrams were generated and analyzed using BiaEval software version 3.1 (Biacore AB, Uppsala, Sweden). The equilibrium RU observed for each injection was plotted against concentration. The equilibrium KD values were derived by analysis of the plots using the steady state affinity model included in the BiaEval software.
In experiment [7] the target is T1, soluble human FcRn. Put plainly: SPR, pH 6. The source holds these as a separate data set.
Method: as §1, §2
In experiment [8] the target is T1, soluble human FcRn. Kind of experiment: SPR, pH 7.4. This is another data set of the same source.
Method: as §1, §2
Experiment [9] concerns the target T1, soluble human FcRn. Put plainly: ELISA, competitor human IgG. This is another data set of the same source.
Method: as §3
Experiment [10] deals with T1, soluble human FcRn. Kind of experiment: ELISA, competitor human IgG. The source holds these as a separate data set.
Method: as §3
For experiment [11], the target named is T1, soluble human FcRn. Put plainly: SPR, pH 6. The source holds these as a separate data set.
Method: as §1, §4
In experiment [12] the target is T1, soluble human FcRn. Kind of experiment: ELISA, competitor human IgG. The source holds these as a separate data set.
Method: as §3
Experiment [13] concerns the target T1, soluble human FcRn. Put plainly: SPR, pH 6. The source holds these as a separate data set.
Method: as §1, §2
Experiment [14] has as its target T1, soluble human FcRn. Kind of experiment: ELISA, competitor human IgG. The source holds these as a separate data set.
Method: as §3
In experiment [15] the target is T1, soluble human FcRn. Kind of experiment: SPR, pH 7.4. The source holds these as a separate data set.
Method: as §1, §4
Experiment [16] concerns the target T1, soluble human FcRn. Kind of experiment: ELISA, competitor human IgG. This is another data set of the same source.
Method: as §3
The target of experiment [17] is T1, soluble human FcRn. Put plainly: ELISA, competitor human IgG. This is another data set of the same source.
Method: as §3
In experiment [18] the target is T1, soluble human FcRn. Kind of experiment: SPR, pH 6. This is another data set of the same source.
Method: as §1, §4
For experiment [19], the target named is T1, soluble human FcRn. Kind of experiment: SPR, pH 7.4. The source holds these as a separate data set.
Method: as §1, §2
Experiment [20] has as its target T1, soluble human FcRn. Kind of experiment: ELISA, competitor human IgG. The source holds these as a separate data set.
Method: as §3

What is called Kd is the constant that tells how readily two partners part at equilibrium. A low value points to tighter binding. As a reminder, the IC50 is the concentration that gives 50% inhibition. Lower therefore signals inhibition by little substance. On to QRFCTGHFG[dA]LYPCNGP-NH2 (disulfide 4-14 (inferred)) [Peptide No. 23], for which, in experiment [1], the affinity, expressed as Kd, was 184 µM. The IC50 in experiment [2] amounted to 57 µM.

Turning to QRFCTGHF[dA][dA]LYPCNGP-NH2 (disulfide 4-14 (inferred)) [Peptide No. 24], the Kd in experiment [3] turned out to be 22 µM. This molecule also yielded an IC50 in experiment [2] of 69 µM.

B1: Peptide No. 80 (peptide)
peptide: QRFKTGHFGGLYPDNGP-NH2
modifications: lactam 4-14; N-terminus assumed
SMILES: CC(C)C[C@@H]1NC(=O)CNC(=O)CNC(=O)[C@H](Cc2ccccc2)NC(=O)[C@H](Cc2c[nH]cn2)NC(=O)CNC(=O)[C@H]([C@@H](C)O)NC(=O)[C@@H](NC(=O)[C@H](Cc2ccccc2)NC(=O)[C@H](CCCNC(=N)N)NC(=O)[C@@H](N)CCC(N)=O)CCCCNC(=O)C[C@@H](C(=O)N[C@@H](CC(N)=O)C(=O)NCC(=O)N2CCC[C@H]2C(N)=O)NC(=O)[C@@H]2CCCN2C(=O)[C@H](Cc2ccc(O)cc2)NC1=O
On to B1, for which binding in [4] was characterised by a dissociation constant (Kd) of 52 µM. In addition, the IC50 in experiment [5] amounted to 60 µM.

B2: Peptide No. 105 (peptide)
peptide: QRFDTGHFG[dA]LYPKNGP-NH2
modifications: lactam 4-14; N-terminus assumed
SMILES: CC(C)C[C@@H]1NC(=O)[C@@H](C)NC(=O)CNC(=O)[C@H](Cc2ccccc2)NC(=O)[C@H](Cc2c[nH]cn2)NC(=O)CNC(=O)[C@H]([C@@H](C)O)NC(=O)[C@@H](NC(=O)[C@H](Cc2ccccc2)NC(=O)[C@H](CCCNC(=N)N)NC(=O)[C@@H](N)CCC(N)=O)CC(=O)NCCCC[C@@H](C(=O)N[C@@H](CC(N)=O)C(=O)NCC(=O)N2CCC[C@H]2C(N)=O)NC(=O)[C@@H]2CCCN2C(=O)[C@H](Cc2ccc(O)cc2)NC1=O
Take B2: the Kd in experiment [6] turned out to be 2.1 µM.

B3: Peptide No. 100 (peptide)
peptide: QRFDTGHFGGLYPKNGP
modifications: also: N-termini joined through a bis-thiol linker (bromoacetylated peptide), bridge as drawn, places not given here
B3: the Kd in experiment [7] came out at 0.006 µM; in [8], 0.13 µM. In [9], this molecule yielded an IC50 of 0.76 µM.

B4: Peptide No. 194 (peptide)
peptide: QRFXTGHFGXYPCNGP
modifications: Pen at 4; X at 10 = D,L-Friedinger's lactam (dipeptide mimetic for Gly-Leu); disulfide; C-terminal amide
As to B4, the IC50 in experiment [10] turned out to be 4.9 µM. Take QRFXTGHFGGLYPENGP (Dab at 4; side-chain lactam bridge Dab 4-Glu 14; C-terminal amide) [Peptide No. 72]: the Kd in experiment [6] was 4.8 µM. For the same molecule, in experiment [5], the IC50 was determined as 81 µM.

B5: Peptide No. 213 (peptide)
peptide: QRF[Pen][NMeA]GHFGGLYPCNGP-NH2
modifications: disulfide 4-14; N-terminus assumed
SMILES: CC(C)C[C@@H]1NC(=O)CNC(=O)CNC(=O)[C@H](Cc2ccccc2)NC(=O)[C@H](Cc2c[nH]cn2)NC(=O)CNC(=O)[C@H](C)N(C)C(=O)[C@@H](NC(=O)[C@H](Cc2ccccc2)NC(=O)[C@H](CCCNC(=N)N)NC(=O)[C@@H](N)CCC(N)=O)C(C)(C)SSC[C@@H](C(=O)N[C@@H](CC(N)=O)C(=O)NCC(=O)N2CCC[C@H]2C(N)=O)NC(=O)[C@@H]2CCCN2C(=O)[C@H](Cc2ccc(O)cc2)NC1=O
In experiment [11], B5 registered a Kd of 1 µM. This molecule gave an IC50 in experiment [12] of 5.5 µM.

Regarding QRFXTGHFGGLYPDNGP (Dab at 4; side-chain lactam bridge Dab 4-Asp 14; C-terminal amide) [Peptide No. 81], the Kd in experiment [6] is 8.4 µM; in experiment [4], 45 µM. On to RFXTGHFGPLYPC (Pen at 3; D-Pro at 9; disulfide; C-terminal amide) [Peptide No. 142], for which binding in [13] was characterised by a dissociation constant (Kd) of 0.14 µM. For the same molecule, in experiment [14], the half-inhibitory concentration (IC50) is 1.5 µM.

B6: Peptide No. 216 (peptide)
peptide: QRFXTGHFGXYPCNGP
modifications: Pen at 4; X at 10 = L,L-Friedinger's lactam (dipeptide mimetic for Gly-Leu); disulfide; C-terminal amide
With B6, the IC50 in experiment [10] was determined as 19 µM.

B7: Peptide No. 236 (peptide)
peptide: RFVTGHFG[Sar][NMeL]YPA-NH2
modifications: N-terminus assumed
SMILES: CC(C)C[C@@H](C(=O)N[C@@H](Cc1ccc(O)cc1)C(=O)N1CCC[C@H]1C(=O)N[C@@H](C)C(N)=O)N(C)C(=O)CN(C)C(=O)CNC(=O)[C@H](Cc1ccccc1)NC(=O)[C@H](Cc1c[nH]cn1)NC(=O)CNC(=O)[C@@H](NC(=O)[C@@H](NC(=O)[C@H](Cc1ccccc1)NC(=O)[C@@H](N)CCCNC(=N)N)C(C)C)[C@@H](C)O
For B7, in experiment [15], binding was characterised by a dissociation constant (Kd) of 9 µM. In addition, the IC50 in [16] and in experiment [17] was 37 µM each time.

B8: Peptide No. 177 (peptide)
peptide: QRFVTGHFG[dP]WYPANGP-NH2
modifications: N-terminus assumed
SMILES: CC(C)[C@H](NC(=O)[C@H](Cc1ccccc1)NC(=O)[C@H](CCCNC(=N)N)NC(=O)[C@@H](N)CCC(N)=O)C(=O)N[C@H](C(=O)NCC(=O)N[C@@H](Cc1c[nH]cn1)C(=O)N[C@@H](Cc1ccccc1)C(=O)NCC(=O)N1CCC[C@@H]1C(=O)N[C@@H](Cc1c[nH]c2ccccc12)C(=O)N[C@@H](Cc1ccc(O)cc1)C(=O)N1CCC[C@H]1C(=O)N[C@@H](C)C(=O)N[C@@H](CC(N)=O)C(=O)NCC(=O)N1CCC[C@H]1C(N)=O)[C@@H](C)O
In the case of B8, the Kd in [18] was determined as 5.8 µM; in experiment [15], 96 µM. The same molecule registered an IC50 in experiment [16] of 52 µM.

B9: Peptide No. 35 (peptide)
peptide: QRFCTGHF[Ava]LYPCNGP-NH2
modifications: disulfide 4-13; N-terminus assumed
SMILES: CC(C)C[C@@H]1NC(=O)CCCCNC(=O)[C@H](Cc2ccccc2)NC(=O)[C@H](Cc2c[nH]cn2)NC(=O)CNC(=O)[C@H]([C@@H](C)O)NC(=O)[C@@H](NC(=O)[C@H](Cc2ccccc2)NC(=O)[C@H](CCCNC(=N)N)NC(=O)[C@@H](N)CCC(N)=O)CSSC[C@@H](C(=O)N[C@@H](CC(N)=O)C(=O)NCC(=O)N2CCC[C@H]2C(N)=O)NC(=O)[C@@H]2CCCN2C(=O)[C@H](Cc2ccc(O)cc2)NC1=O
Turning to B9, the IC50 in experiment [2] is more than 125 µM. Consider QRFXTGHFGGLXPCNGP (Pen at 4; 4-fluoro-Phe at 12; disulfide; C-terminal amide) [Peptide No. 140], for which the Kd in experiment [19] came to 24 µM. Besides, in experiment [20], the IC50 is 26 µM.
